One assay deals with T1, cell surface LFA-1 (Homo sapiens, UniProt P20701).
T1 construct: within the physiological context of cell surface LFA-1; endogenous in cells; host or cells: Jurkat T cells
Nature of the assay: ICAM-2-FITC surface binding on Jurkat cells by flow cytometry (single cell binding measurements). The procedure: A) Purified human ICAM-2, from retrovirally transduced NIH3T3, (see materials and methods) was tested for purity, size, and aggregate formation by native gel electrophoresis and gel filtration. Analysis of purified ICAM-2, from two different preps and ICAM2-FC from NSO cells. Molecular weight was calculated using relative distance migration from a molecular weight standard. Concentration was determined using serial dilutions of BSA as a standard. […] B) ICAM-2, ligand binding to cell surface as a function of time. 5×10^6, unstimulated and PMA stimulated (1, μg/ml, 30, min) Jurkat T cells were incubated with ICAM-2-FITC or LFA-1-FITC antibody (1, μg/ml) and subjected to time dependent flow cytometry. Mean fluorescence intensity was plotted per time of a gated homogenous cell population. Flow rate was maintained at 200-300, cells/second, with fluorescence intensity values acquired at 10, millisecond intervals for 1200, seconds. C) Flow cytometric analysis of ICAM-2-FITC and a-LFA-1-FITC surface binding on cytochalisin D treated (10, μM, 30, min) Jurkat cells at 37° C. and 4° C. D) Curve fit analysis of ICAM-2-FITC binding per 10^4, cells. Jurkat cells were incubated with ICAM-2-FITC at 37° C. for 30, min at indicated concentrations in 50, μL volume. Cells were washed 1×, and analyzed for mean fluorescent intensity (MFI) of 10^4, cells. Percent ICAM-2-FITC bound was calculated from the following equation: 100×[(MFI[×]−MFIunstained)/(MFI[saturated]−MFIunstained)] where [×]=ICAM-2-FITC concentration and [saturated]=concentration that saturated binding. Values were fit to the equation Y=m1*M0/(m2+M0) (see materials and methods).
Full length ICAM2 cDNA was obtained from Jurkat cells and cloned into retroviral vector PBM-Z-IN at the BamHI/Sal1 site as described (Perez et al., 2002). Human ICAM-2 was overexpressed in NIH3T3 cells by retroviral infection and harvested by immunoaffinity chromatography. ICAM-2 was affinity purified using a two step lysing procedure and subsequent purification on an anti-ICAM-2 solid support. […] Batch lysate of harvested supernatant was performed (4° C., for 2 hrs), and washed 4 times in buffer C (0.1% Tween-20, PBS pH 7.4). ICAM-2 protein was eluted by 4.5 M NaCl (in Tris pH 6.8), dialyzed overnight (in PBS pH 7.4, 0.001% azide, 0.01% glycerol, 4° C.), concentrated using size exclusion spin chromatography and stabilized using 0.01% glycerol. Anti-ICAM-2 solid support was re-equilibrated in buffer C, stored in 0.001% thimerosol and re-used up to 3 times. Purity was >98% as assessed by coomasie gel. […] Gel imaging was performed on a VersaDoc machine (Biorad) and analyzed using Quantity One quantitation software (Biorad). […]
On the technique in general: Flow cytometry measures light scatter and fluorescence of single cells or particles in a stream.

The next assay concerns LFA-1. As to the kind of experiment: LFA-1 activation by mAb24-Alexa633 staining, flow cytometry. Particulars: Jurkat cells, agents 10 μM 30 min, PMA 1 μg/ml, prior to ICAM-2 10 μg/ml 30 min. The format is cell-based, human. The procedure: A) Confocal microscopy of actin and microtubule architecture upon ICAM-2, stimulus (10, μg/ml, 30, min) in Jurkat cells. Actin was stained by phalloidin-alexa633, and tubulin by taxol-alexa546. Inserts display enlarged cell image of representative treatment B) Flow cytometric staining for actin and microtubules as described above. C) Left: Fluorescence topography analysis of ICAM-2-FITC (1 μg/ml, time as indicated) surface distribution. Intensity color gradient depicts high and low fluorescent intensity values. Right: Confocal microscopy of ICAM-2-FITC surface binding (10 μg/ml, 30, min) and anti-β2-alexa568, (clone CTB104). D) Staining for ICAM-2-FITC surface binding (fluorescence intensity) and surface distribution (fluorescence pulse) in cytochalisin D treated Jurkat cells at 37° C. and 4° C. by flow cytometry. E) Values for ICAM-2-FITC fluorescence intensity per time-of-flight per cell as described in text. F) Flow cytometric staining for LFA-1 activation by mAb24-alexa633. Stimuli as indicated (10, μM, 30, min), PMA (1, μg/ml) prior to ICAM-2, stimulation (10, μg/ml, 30, min). Staining was performed at 37° C. G) Mean fluorescence intensity (MFI) values of mAb24-633, and ICAM-2, cluster values, computed as described above, as a function of time.
Intracellular and extracellular staining was performed as described (Perez and Nolan, 2002). Intracellular probes for active kinases were made by conjugating phospho-specific antibodies to the ALEXA FLUOR® dye series as described and used in phospho-protein optimized conditions (Perez and Nolan, 2002). Kinetic analyses was performed by direct application of fixation buffer in time synchronized 96-wells maintained at 37° C. Intracellular actin and microtubule staining was performed using phalloidin-Alexa633 and taxol-Alexa546 dyes (Molecular Probes). Adhesion and clustering assays were performed using ICAM-2-FITC as described in text. LFA-1 activation was assessed by either mAb24-Alexa633 or mAb24-Alexa546 conjugate, surface stained at 37° C. Flow cytometry data are representative of 3 independent experiments of 10^6 cells/sample. 10-50,000 events were collected and manually calibrated on a FACSCalibur™ machine. Data plotted in bar graph format is expressed as geometric mean fluorescence intensity (MFI) and normalized for isotype controls. Log ratios are defined as the MFI of stimulus to the MFI of unstimulated cells. Data was analyzed using Flowjo™ software (Treestar).

The values that follow come from patent US8962263B2, “Methods and compositions for detecting the activation state of multiple proteins in single cells” (The Board of Trustees of the Leland Stanford Junior …, priority 2001, dated 2015).

Read-outs that look alike come from different tables or passages of the source.

T1 sequence (P20701 26-1170): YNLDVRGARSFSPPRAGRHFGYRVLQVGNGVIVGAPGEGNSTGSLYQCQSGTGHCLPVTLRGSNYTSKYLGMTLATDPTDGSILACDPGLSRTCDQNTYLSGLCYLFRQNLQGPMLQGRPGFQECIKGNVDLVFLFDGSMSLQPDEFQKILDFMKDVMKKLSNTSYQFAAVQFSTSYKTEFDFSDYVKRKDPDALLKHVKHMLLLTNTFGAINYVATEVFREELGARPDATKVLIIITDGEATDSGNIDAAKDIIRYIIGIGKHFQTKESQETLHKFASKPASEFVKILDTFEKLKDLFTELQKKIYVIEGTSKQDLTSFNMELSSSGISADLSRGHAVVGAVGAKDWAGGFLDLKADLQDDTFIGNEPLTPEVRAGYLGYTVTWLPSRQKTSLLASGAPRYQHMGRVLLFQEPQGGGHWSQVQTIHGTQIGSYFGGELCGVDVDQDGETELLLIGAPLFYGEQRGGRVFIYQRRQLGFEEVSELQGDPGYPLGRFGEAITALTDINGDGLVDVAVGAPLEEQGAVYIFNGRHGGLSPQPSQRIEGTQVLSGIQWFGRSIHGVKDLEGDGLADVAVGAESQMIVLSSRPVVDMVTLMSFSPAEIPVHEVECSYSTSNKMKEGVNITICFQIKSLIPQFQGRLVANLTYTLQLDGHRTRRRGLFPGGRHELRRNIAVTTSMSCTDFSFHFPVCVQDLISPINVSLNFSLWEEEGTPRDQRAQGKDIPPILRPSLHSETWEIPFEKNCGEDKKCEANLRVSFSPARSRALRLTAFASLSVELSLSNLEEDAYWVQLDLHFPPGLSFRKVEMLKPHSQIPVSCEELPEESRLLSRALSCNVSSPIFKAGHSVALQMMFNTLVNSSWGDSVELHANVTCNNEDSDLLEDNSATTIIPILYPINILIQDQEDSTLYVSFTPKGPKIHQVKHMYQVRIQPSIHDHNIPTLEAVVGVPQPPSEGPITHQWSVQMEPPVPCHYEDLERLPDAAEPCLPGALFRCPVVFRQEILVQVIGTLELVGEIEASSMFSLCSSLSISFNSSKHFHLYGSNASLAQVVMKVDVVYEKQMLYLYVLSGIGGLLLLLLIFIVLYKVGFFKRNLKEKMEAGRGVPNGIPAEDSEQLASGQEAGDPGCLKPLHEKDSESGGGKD
T1 sequence (P05107 23-769 partner): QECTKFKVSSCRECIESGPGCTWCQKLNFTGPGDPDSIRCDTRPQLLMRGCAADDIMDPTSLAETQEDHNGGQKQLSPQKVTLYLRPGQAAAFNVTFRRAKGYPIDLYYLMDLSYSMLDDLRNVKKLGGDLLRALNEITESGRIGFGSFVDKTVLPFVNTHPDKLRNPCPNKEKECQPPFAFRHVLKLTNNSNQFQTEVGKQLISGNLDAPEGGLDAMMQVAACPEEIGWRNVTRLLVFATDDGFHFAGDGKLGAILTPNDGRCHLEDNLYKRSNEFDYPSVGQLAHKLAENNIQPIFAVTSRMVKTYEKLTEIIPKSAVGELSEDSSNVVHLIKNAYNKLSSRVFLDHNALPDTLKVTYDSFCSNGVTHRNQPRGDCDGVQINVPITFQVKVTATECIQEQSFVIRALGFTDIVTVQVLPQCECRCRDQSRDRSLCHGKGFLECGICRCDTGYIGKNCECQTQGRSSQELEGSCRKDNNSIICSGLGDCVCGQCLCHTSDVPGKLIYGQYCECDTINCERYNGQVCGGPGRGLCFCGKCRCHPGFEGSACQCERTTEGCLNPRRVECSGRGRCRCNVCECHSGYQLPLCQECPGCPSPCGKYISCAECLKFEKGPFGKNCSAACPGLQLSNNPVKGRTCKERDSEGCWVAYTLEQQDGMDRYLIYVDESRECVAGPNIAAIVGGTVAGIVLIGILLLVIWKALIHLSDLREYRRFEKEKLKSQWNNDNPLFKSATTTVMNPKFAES

As to `CN(C)CCCn1cc(C2=C(c3c[nH]c4ccccc34)C(=O)NC2=O)c2ccccc21` [bisindolymaleimide I], at cell surface LFA-1 (PKC inhibitor treated cells), the “ICAM-2 adhesion measured by binding of ICAM-2-FITC” value is listed as “not affected”. Also, in the assay with LFA-1, the “LFA-1 activation (mAb24 binding)” value is listed as “inhibited ICAM-2 induced LFA-1 activation”.

B1: ICAM-2: biochemically purified soluble human ICAM-2 protein from retrovirally transduced NIH3T3 cells; ICAM-2-FC fusion also used (protein, UniProt P13598 25-223, looked up)
extracellular domain: KVFEVHVRPKKLAVEPKGSLEVNCSTTCNQPEVGGLETSLDKILLDEQAQWKHYLVSNISHDTVLQCHFTCSGKQESMNSNVSVYQPPRQVILTLQPTLVAVGKSFTIECRVPTVEPLDSLTLFLFRGNETLHYETFGKAAPAPQEATATFNSTADREDGHRNFSCLAVLDLMSRGGNIFHKHSAPKMLEIYEPVSDSQ
modifications: extracellular domain
notes: biochemically purified soluble human ICAM-2 protein from retrovirally transduced NIH3T3 cells; ICAM-2-FC fusion also used
Turning to B1, the Kd with cell surface LFA-1 (Jurkat cells, 37° C., 30 min, curve fit analysis, read-out: dissociation constant of ICAM-2-FITC binding) was 210 ± 70 nM; in the assay with cell surface LFA-1 (per 10^4 cells, read-out: calculated ICAM-2 affinity), 217 ± 66 nM. Further, the “LFA-1 activation (mAb24 binding)” value with LFA-1 is given as “bimodal population in active LFA-1”; with LFA-1 (listed as full length ICAM-2), “resulted in active LFA-1”.
